According to article PMC10697951 (2023):

Target: H2A.Z(D97N/S98K)-containing nucleosome core particle with wild-type H4 (H4K20) (UniProt P06899 1-126; P68431 1-136; P62805 1-103)
Assay: MST

Kd: 219 nM
B1: SUV420H1(1–390), wild type, with N-terminal 6× His-TEV tag (domain or fragment)
chain: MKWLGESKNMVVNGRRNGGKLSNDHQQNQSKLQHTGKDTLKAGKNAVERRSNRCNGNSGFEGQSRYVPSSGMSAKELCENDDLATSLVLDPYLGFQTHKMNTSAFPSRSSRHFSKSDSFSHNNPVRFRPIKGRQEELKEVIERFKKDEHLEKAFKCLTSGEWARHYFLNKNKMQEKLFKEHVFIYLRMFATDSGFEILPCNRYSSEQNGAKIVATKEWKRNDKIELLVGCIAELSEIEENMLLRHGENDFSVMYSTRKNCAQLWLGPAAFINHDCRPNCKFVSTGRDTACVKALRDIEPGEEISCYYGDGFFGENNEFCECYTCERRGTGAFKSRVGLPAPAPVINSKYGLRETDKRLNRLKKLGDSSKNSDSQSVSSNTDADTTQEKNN
modifications: RED-tris-NTA dye on the His tag
